Positions count from the first letter of the chain named.
B1: cwp1-45/-1m11 (dsDNA)
DNA 1: GTTTACAACTCTCAGATCAAGAAACACAGAAAAAAAAAAACAGGG
DNA 2: CCCTGTTTTTTTTTTTCTGTGTTTCTTGATCTGAGAGTTGTAAAC
B2: cwp1-45/-1m9 (dsDNA)
DNA 1: B1 DNA 1 with A33T, A38T, A40C, C41G, A42G
DNA 2: B1 DNA 2 with T4C, G5C, T6G, T8A, T13A
B3: cwp1-45/-1m5 (dsDNA)
DNA 1: GTTTACAACTCTCAGATCAAGAAAGGGAGAAATAAAATATCAGGG
DNA 2: CCCTGATATTTTATTTCTCCCTTTCTTGATCTGAGAGTTGTAAAC
B4: cwp1-45/-1m4 (dsDNA)
DNA 1: GTTTACAACTCTCAGATCGGCGGGCACAGAAATAAAATATCAGGG
DNA 2: CCCTGATATTTTATTTCTGTGCCCGCCGATCTGAGAGTTGTAAAC
B5: cwp1-45/-1 (dsDNA)
DNA 1: B1 DNA 1 with A33T, A38T, A40T
DNA 2: B3 DNA 2 with C19G, C20T, C21G
B6: ran-51/-20 (dsDNA)
DNA 1: TAAAATAAATTAAATCGAAATTAAAACTTTAA
DNA 2: TTAAAGTTTTAATTTCGATTTAATTTATTTTA
B7: cwp2-30/+8 (dsDNA)
DNA 1: CAGCAGCTCAACAGTGGCTGGGAAAATAAAATGATCGC
DNA 2: GCGATCATTTTATTTTCCCAGCCACTGTTGAGCTGCTG
B8: cwp3-30/+10 (dsDNA)
DNA 1: GTCTTTCCCAAAAAATAAGTTACTACTGATATGTTTTCTC
DNA 2: GAGAAAACATATCAGTAGTAACTTATTTTTTGGGAAAGAC
B9: cwp1-45/-1 single strand 1 (ssDNA)
DNA: B1 DNA 1 with A33T, A38T, A40T
B10: ran-30/-1 (dsDNA)
DNA 1: TAAAACTTTAACCCAGGAACCGAGAGTAGC
DNA 2: GCTACTCTCGGTTCCTGGGTTAAAGTTTTA
B11: poly(A) with TT insertion (dsDNA)
DNA 1: AAAAAAAAAAATTAAAAAAAAAA
DNA 2: TTTTTTTTTTAATTTTTTTTTTT
B12: poly(A) with TC insertion (dsDNA)
DNA 1: AAAAAAAAAAATCAAAAAAAAAA
DNA 2: TTTTTTTTTTGATTTTTTTTTTT
B13: cwp2-60/-31 (dsDNA)
DNA 1: TAGACTGATGCTGTAGAGGTCAACAGATAA
DNA 2: TTATCTGTTGACCTCTACAGCATCAGTCTA
B14: poly(A) with T insertion (dsDNA)
DNA 1: AAAAAAAAAAATAAAAAAAAAAA
DNA 2: TTTTTTTTTTTATTTTTTTTTTT
B15: myb2-60/-31 (dsDNA)
DNA 1: TGGCTATGTATTTTTTCTTCTTCTACAGCT
DNA 2: AGCTGTAGAAGAAGAAAAAATACATAGCCA
B16: poly(A) (dsDNA)
DNA 1: AAAAAAAAAAAAAAAAAAAAAAA
DNA 2: TTTTTTTTTTTTTTTTTTTTTTT
B17: ran-81/-52 (dsDNA)
DNA 1: CAGAAAAAGTTGTCAAGGAGGTGATAGCCG
DNA 2: CGGCTATCACCTCCTTGACAACTTTTTCTG
B18: poly(A) with TTT insertion (dsDNA)
DNA 1: AAAAAAAAAATTTAAAAAAAAAA
DNA 2: TTTTTTTTTTAAATTTTTTTTTT
B19: cwp1-90/-69 (dsDNA)
DNA 1: CTGGCTAACAGTCTACAGTCTA
DNA 2: TAGACTGTAGACTGTTAGCCAG
B20: cwp1-90/-46 (dsDNA)
DNA 1: CTGGCTAACAGTCTACAGTCTACAATTTACAGTATACAATCTACA
DNA 2: TGTAGATTGTATACTGTAAATTGTAGACTGTAGACTGTTAGCCAG

Molecular target: T1, Pax2 (Giardia lamblia, UniProt A8B733 1-302)
T1 sequence: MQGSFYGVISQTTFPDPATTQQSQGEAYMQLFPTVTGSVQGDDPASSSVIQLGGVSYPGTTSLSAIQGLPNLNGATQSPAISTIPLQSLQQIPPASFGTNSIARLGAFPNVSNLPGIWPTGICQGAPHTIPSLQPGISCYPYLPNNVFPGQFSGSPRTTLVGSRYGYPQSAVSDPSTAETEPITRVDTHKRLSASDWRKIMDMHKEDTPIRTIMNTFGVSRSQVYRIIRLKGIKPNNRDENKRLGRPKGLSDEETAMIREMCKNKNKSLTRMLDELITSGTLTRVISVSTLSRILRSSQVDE
Test: EMSA; unchanged; EMSA: 0.02 pmol 5'-32P probe, 5 ng protein, 20 ul, 0.5 ug poly(dI-dC), 15 min at room temperature, 6% acrylamide gel; buffer, salt and pH only by reference [31]
Conditions: protein: recombinant; tags: C-terminal V5-His (pET101/D-TOPO); label: 5'-32P

Binder	binding result
B1	binds
B2	binds
B3	binds
B4	binds

Molecular target: T1, Pax2
Test: EMSA; self-competition and anti-V5 supershift assay confirm specificity; EMSA: 0.02 pmol 5'-32P probe, 5 ng protein, 20 ul, 0.5 ug poly(dI-dC), 15 min at room temperature, 6% acrylamide gel; buffer, salt and pH only by reference [31]
Conditions: protein: recombinant; tags: C-terminal V5-His (pET101/D-TOPO); label: 5'-32P

Binder	binding result
B5	binds

Molecular target: T2, Pax2m3 (Giardia lamblia, UniProt A8B733 1-171, del172-302)
T2 sequence: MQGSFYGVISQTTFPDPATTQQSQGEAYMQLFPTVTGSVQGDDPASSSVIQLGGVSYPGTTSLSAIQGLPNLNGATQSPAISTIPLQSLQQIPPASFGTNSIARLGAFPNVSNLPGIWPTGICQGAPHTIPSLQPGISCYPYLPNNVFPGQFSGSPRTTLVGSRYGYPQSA
Test: EMSA; EMSA: 0.02 pmol 5'-32P probe, 5 ng protein, 20 ul, 0.5 ug poly(dI-dC), 15 min at room temperature, 6% acrylamide gel; buffer, salt and pH only by reference [31]
Conditions: protein: recombinant; tags: C-terminal V5-His (pET101/D-TOPO); label: 5'-32P

Binder	binding result
B5	no binding
B6	no binding
B7	no binding
B8	no binding

Molecular target: T1, Pax2
Test: as above
Conditions: protein: recombinant; tags: C-terminal V5-His (pET101/D-TOPO)

Binder	binding result
B9	no binding
B10	no binding

Same assay, conditions: protein: recombinant; tags: C-terminal V5-His (pET101/D-TOPO); label: 5'-32P

Binder	binding result
B11	binds
B12	binds
B6	binds
B13	no binding
B14	binds
B15	no binding
B16	binds
B17	no binding
B18	binds
B19	no binding
B20	binds

Molecular target: T1, Pax2
Test: EMSA; strong binding; EMSA: 0.02 pmol 5'-32P probe, 5 ng protein, 20 ul, 0.5 ug poly(dI-dC), 15 min at room temperature, 6% acrylamide gel; buffer, salt and pH only by reference [31]
Conditions: protein: recombinant; tags: C-terminal V5-His (pET101/D-TOPO); label: 5'-32P

Binder	binding result
B8	binds

— paper PMC3280250, “Functional Redundancy of Two Pax-Like Proteins in Transcriptional Activation of Cyst Wall Protein Genes in Giardia lamblia”
